This is an account of results in article doi:10.1101/2022.11.18.516900v2.

Substrate in data set [1]: Nc1nc2c(c(=O)[nH]1)N1CN(c3ccc(C(=O)N[C@@H](CCC(=O)O)C(=O)O)cc3)C[C@H]1CN2
In words: purified protein. The following applies: 100 μM NADH, 100 mM Mops/NaOH pH 7.0, 40 °C, under N2.

Substrate in data set [2]: NC(=O)C1=CN([C@@H]2O[C@H](COP(=O)(O)OP(=O)(O)OC[C@H]3O[C@@H](n4cnc5c(N)ncnc54)[C@H](O)[C@@H]3O)[C@@H](O)[C@H]2O)C=CC1
Kind of data set: purified protein. The following applies: 300 μM methylene-H4F, 100 mM Mops/NaOH pH 7.0, 40 °C, under N2.

B1: hMfr (Mycolicibacterium hassiacum DSM 44199) (protein)
chain: MTLNTIALELVPPNSDGPDGGREQAVEDARKVLRCAAETGLAGRIGHVMIPGMIEEDPDRPIPMKPKMDVLDFWTIIRPELPGIRGLCTQVTAFLDEPALRRRLGDLSAAGFDGIAFVGVPRTMNDGEGHGVAPTDALSMFADLVPNRGAILIPTRDGEQGRFEFKCERGATYGMTQLLYSDAIVGFLREFARRTDHRPEILLSFGFVPKLEAKVGLINWLIQDPGNPAVAAEQEFVRRLAGLEPADKRKLMVDLYKRVIDGVADLGFPLSVHLEATYGVSVPAFETFAEMLAYWSPGQG
As to B1, the Km (as a rule, the concentration of substrate that gives half-maximal velocity) in data set [1] is 160 ± 62 µM; in data set [2] it was 16 ± 3 µM. Besides, the kcat (in general, the number of substrate molecules converted per active site and unit of time at saturation) was 590 ± 85 min⁻¹ in data set [1] and 540 ± 23 min⁻¹ in data set [2].

B2: hMfr (Mycolicibacterium hassiacum DSM 44199; E9Q) (protein)
chain: MTLNTIALQLVPPNSDGPDGGREQAVEDARKVLRCAAETGLAGRIGHVMIPGMIEEDPDRPIPMKPKMDVLDFWTIIRPELPGIRGLCTQVTAFLDEPALRRRLGDLSAAGFDGIAFVGVPRTMNDGEGHGVAPTDALSMFADLVPNRGAILIPTRDGEQGRFEFKCERGATYGMTQLLYSDAIVGFLREFARRTDHRPEILLSFGFVPKLEAKVGLINWLIQDPGNPAVAAEQEFVRRLAGLEPADKRKLMVDLYKRVIDGVADLGFPLSVHLEATYGVSVPAFETFAEMLAYWSPGQG
Regarding B2, in data set [1], the Km amounted to 250 ± 59 µM and the catalytic constant (kcat) was determined as 1.3 ± 0.1 min⁻¹. In data set [2], the Michaelis-Menten constant (Km) was determined as 44 ± 13 µM and the kcat came out at 1.1 ± 0.1 min⁻¹.
